Measured values taken from patent US20220048996A1.

Columns and labels:
[1] = target: human OX40 expressed on DO11.10 cells (DO11.10-hOX40) (human) (UniProt P43489); assay: cell-based or functional assay
[2] = target: cynomolgus OX40 expressed on DO11.10 cells (DO11.10-cOX40) (cynomolgus); assay: flow cytometry on DO11.10 cells expressing the target
[3] = target: human OX40 expressed on DO11.10 cells (DO11.10-hOX40) (human) (UniProt P43489); assay: as above
[4] = target: hFcγR1 (R&D Systems 1257-FC-050/CF) (human) (UniProt P12314); assay: SPR, antibody 100 nM on OX40-his chip co-injected with FcγR 500 nM
Chain of hFcγR1 (R&D Systems 1257-FC-050/CF) (human) (P12314 16-288 limits assumed): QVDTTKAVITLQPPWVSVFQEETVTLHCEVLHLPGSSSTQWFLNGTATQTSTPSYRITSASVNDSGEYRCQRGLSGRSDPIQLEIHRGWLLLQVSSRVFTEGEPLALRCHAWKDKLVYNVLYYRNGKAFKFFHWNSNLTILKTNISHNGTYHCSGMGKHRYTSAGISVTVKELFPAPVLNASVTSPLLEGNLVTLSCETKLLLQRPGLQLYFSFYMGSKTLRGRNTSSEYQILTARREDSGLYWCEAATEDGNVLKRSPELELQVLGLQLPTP

[5] = target: hFcγR2a (R&D Systems 1330-CD-050/CF) (human) (UniProt P12318); assay: as above
Chain of hFcγR2a (R&D Systems 1330-CD-050/CF) (human) (P12318 36-218 limits assumed): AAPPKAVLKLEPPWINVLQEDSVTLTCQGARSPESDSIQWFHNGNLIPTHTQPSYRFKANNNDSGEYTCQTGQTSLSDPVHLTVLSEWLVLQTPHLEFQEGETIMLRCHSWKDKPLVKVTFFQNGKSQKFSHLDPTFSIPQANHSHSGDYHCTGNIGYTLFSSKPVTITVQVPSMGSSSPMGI

[6] = target: hFcγR2b (R&D Systems 1460-CD-050/CF) (human) (UniProt P31994); assay: as above
Chain of hFcγR2b (R&D Systems 1460-CD-050/CF) (human) (P31994 46-217 limits assumed): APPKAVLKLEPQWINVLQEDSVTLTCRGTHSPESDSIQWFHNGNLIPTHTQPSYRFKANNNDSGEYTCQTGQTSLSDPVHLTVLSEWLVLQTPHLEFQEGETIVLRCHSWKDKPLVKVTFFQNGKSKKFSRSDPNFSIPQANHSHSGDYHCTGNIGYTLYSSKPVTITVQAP

[7] = target: hFcγR3a (R&D Systems 4325-FC-050/CF) (human) (UniProt P08637); assay: as above
Chain of hFcγR3a (R&D Systems 4325-FC-050/CF) (human) (P08637 17-208 limits assumed): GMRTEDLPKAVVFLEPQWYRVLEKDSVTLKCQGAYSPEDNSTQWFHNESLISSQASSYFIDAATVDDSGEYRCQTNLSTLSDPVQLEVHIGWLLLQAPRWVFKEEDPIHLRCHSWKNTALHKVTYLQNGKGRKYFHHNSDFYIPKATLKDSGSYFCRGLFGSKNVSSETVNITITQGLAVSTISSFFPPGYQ

hOX40-mFc (human) = assay: SPR, antibody captured via anti-human Fab, dimeric antigen flowed, 1:1 fit
Chain of hOX40-mFc (human) (chain, as listed by the source limits assumed): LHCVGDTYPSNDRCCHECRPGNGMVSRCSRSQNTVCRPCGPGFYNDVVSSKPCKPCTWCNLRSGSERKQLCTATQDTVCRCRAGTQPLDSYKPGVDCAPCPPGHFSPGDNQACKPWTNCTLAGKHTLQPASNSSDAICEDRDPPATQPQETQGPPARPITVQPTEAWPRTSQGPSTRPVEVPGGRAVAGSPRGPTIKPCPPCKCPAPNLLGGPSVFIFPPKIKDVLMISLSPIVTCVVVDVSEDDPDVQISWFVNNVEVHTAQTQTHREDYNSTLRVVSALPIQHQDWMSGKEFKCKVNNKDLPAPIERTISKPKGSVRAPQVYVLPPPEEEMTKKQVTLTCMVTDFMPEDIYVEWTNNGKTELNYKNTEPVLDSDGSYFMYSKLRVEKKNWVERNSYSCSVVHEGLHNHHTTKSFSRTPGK

[8] = target: mouse CD137 expressed on DO11.10 cells (DO11.10-mCD137) (mouse) (UniProt P20334); assay: flow cytometry on DO11.10 cells expressing the target
Chain of mouse CD137 expressed on DO11.10 cells (DO11.10-mCD137) (mouse) (P20334 24-256): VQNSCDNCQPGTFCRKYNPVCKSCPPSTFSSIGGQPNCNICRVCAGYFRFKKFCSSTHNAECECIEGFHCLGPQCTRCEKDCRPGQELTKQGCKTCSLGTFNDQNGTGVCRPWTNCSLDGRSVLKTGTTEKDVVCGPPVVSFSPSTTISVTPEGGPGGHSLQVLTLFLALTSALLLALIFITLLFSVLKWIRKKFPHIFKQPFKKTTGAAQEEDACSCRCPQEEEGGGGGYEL

[9] = target: cynomolgus OX40 expressed on DO11.10 cells (DO11.10-cOX40) (cynomolgus); assay: flow cytometry on DO11.10-cOX40
[10] = target: human OX40 expressed on DO11.10 cells (DO11.10-hOX40) (human) (UniProt P43489); assay: flow cytometry on DO11.10-hOX40
[11] = target: mouse CD137 expressed on DO11.10 cells (DO11.10-mCD137) (mouse) (UniProt P20334); assay: cell-based or functional assay
[12] = target: hFcγR1 (R&D Systems 1257-FC-050/CF) (human) (UniProt P12314); assay: SPR, antibody 100 nM on CD137-his chip co-injected with FcγR 500 nM
[13] = target: hFcγR2a (R&D Systems 1330-CD-050/CF) (human) (UniProt P12318); assay: as above
[14] = target: hFcγR2b (R&D Systems 1460-CD-050/CF) (human) (UniProt P31994); assay: as above
[15] = target: hFcγR3a (R&D Systems 4325-FC-050/CF) (human) (UniProt P08637); assay: as above

Chain of human OX40 expressed on DO11.10 cells (DO11.10-hOX40) (human) (P43489 29-277): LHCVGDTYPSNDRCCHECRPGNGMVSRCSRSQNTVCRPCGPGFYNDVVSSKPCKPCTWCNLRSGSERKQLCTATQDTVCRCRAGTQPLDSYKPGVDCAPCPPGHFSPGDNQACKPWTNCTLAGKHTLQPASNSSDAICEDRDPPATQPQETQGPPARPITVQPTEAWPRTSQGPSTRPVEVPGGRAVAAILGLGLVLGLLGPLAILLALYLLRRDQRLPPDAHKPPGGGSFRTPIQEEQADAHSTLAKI
Chain of cynomolgus OX40 expressed on DO11.10 cells (DO11.10-cOX40) (cynomolgus) (P43489 other isoform, or with tags, fused parts or gaps): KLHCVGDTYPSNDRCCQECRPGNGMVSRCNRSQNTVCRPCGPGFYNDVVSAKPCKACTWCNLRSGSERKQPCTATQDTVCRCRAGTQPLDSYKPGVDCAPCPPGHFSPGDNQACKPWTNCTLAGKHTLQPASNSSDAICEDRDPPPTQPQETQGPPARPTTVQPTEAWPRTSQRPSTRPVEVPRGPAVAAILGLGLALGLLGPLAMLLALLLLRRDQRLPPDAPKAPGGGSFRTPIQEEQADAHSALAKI

Row | Substance | SEA assay (PBMC), hIL-2 max response, crosslinked [1] [pg/mL] | SEA assay (PBMC), hIL-2 release EC50, crosslinked [1] [nM] | pan-T cell activation assay, hIL-2 max response, crosslinked [1] [pg/mL] | pan-T cell activation assay, hIL-2 release EC50, crosslinked [1] [nM] | binding response at end of association phase of FcγR [4] [RU] | decrease of binding response at end of dissociation phase of FcγR [4] [RU] | binding response at end of association phase of FcγR [5] [RU] | binding response at end of association phase of FcγR [6] [RU] | binding response at end of association phase of FcγR [7] [RU] | further results
1 | G1/11D4 (antibody) | 6610 | 0.13 | 6380 | 0.0513 | 370 | 46.4 | 123 | 89.7 | 143 | EC50 [2]: 0.0941 nM; EC50 [3]: 0.125 nM; Kd (hOX40-mFc (human)): 0.0337 nM
2 | G1/Lob12.3 (antibody) |  |  |  |  |  |  |  |  |  | EC50 [8]: 0.121 nM
3 | G1AA/11D4 (antibody) | 4270 | 0.0716 | 4130 | 0.13 | 292 | 203 | 64.5 | 60.9 | 67.3 | CD4+ T cell activation assay, hIL-2 max response, crosslinked [1]: 8820 pg/mL; CD4+ T cell activation assay, hIL-2 release EC50, crosslinked [1]: 0.0813 nM; CD8+ T cell activation assay, hIL-2 max response, crosslinked [1]: 388 pg/mL; CD8+ T cell activation assay, hIL-2 release EC50, crosslinked [1]: 0.0996 nM; EC50 [9]: 0.213 nM; EC50 [10]: 0.814 nM
4 | G1AA/Lob12.3 (antibody) |  |  |  |  |  |  |  |  |  | mouse pan-T cell activation assay, mIL-2 max response, crosslinked [11]: 374 pg/mL; mouse pan-T cell activation assay, mIL-2 release EC50, crosslinked [11]: 1.18 nM
5 | G4/20H4.9 (antibody) |  |  |  |  |  |  |  |  |  | binding response at end of association phase of FcγR [12]: 693 RU; decrease of binding response at end of dissociation phase of FcγR [12]: 57.1 RU; binding response at end of association phase of FcγR [13]: 156 RU; binding response at end of association phase of FcγR [14]: 164 RU; binding response at end of association phase of FcγR [15]: 113 RU
